Experimental findings from patent US20220412960A1 are described below.

The target of the assay is PAR-1 receptor on human platelets (human) (UniProt P25116). Kind of assay: cell-based or functional assay.

Some results are limits rather than exact numbers.

Sequence of PAR-1 receptor on human platelets (human) (P25116 42-425): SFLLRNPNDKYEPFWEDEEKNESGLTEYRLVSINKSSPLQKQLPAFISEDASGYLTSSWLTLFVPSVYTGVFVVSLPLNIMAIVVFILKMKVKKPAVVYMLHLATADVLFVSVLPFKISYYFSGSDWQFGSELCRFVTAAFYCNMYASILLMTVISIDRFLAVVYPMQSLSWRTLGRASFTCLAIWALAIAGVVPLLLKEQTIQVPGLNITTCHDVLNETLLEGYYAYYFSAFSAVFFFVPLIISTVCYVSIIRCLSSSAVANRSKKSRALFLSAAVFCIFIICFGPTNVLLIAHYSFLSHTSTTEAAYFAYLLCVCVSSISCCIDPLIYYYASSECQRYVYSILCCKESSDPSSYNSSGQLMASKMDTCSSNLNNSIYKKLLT

With “thrombin receptor agonist peptide TRAP-6”, the platelet aggregation, light transmission aggregometry, washed platelets of sepsis patients at ICU admission, 10 µM TRAP-6 was > 21.2% and the platelet aggregation, light transmission aggregometry, washed platelets of sepsis patients at ICU admission, 10 µM TRAP-6 (mean) came to 34.2%.
